Reference: publication PMC2173783
Read-outs that look alike come from different tables or passages of the source.

Tests used:
[1] = target: bt-SR (bt-SRβ + SRα) (canine); assay: IAsys optical biosensor
[2] = target: bt-SR (bt-SRβ + SRα) (canine); assay: IAsys optical biosensor; remark: listed apart in the source
[3] = target: bt-SR (bt-SRβ + SRα) (canine); assay: IAsys optical biosensor; remark: listed apart in the source
[4] = target: SRP receptor purified from canine pancreas (canine) (UniProt P06625); assay: radioligand binding
Sec61 complex = assay: radioligand binding

Row | koff [1] | koff [2] | kon [2] | Kd [2] | Kd [3] | Kd [4] | stoichiometry N [4] | Kd (Sec61 complex) | Substance
1 | 0.0065 s⁻¹ | 0.0069 s⁻¹ | 48000 M⁻¹ s⁻¹ |  |  |  |  |  | signal recognition particle (from UniProt P61010 1-504) (complex)
2 |  |  |  | 0.9 nM | 1.9 nM | 0.87 nM | 1 | 5.4 nM | 80S ribosomes (complex)
